Laboratory results published in paper PMC7862291 (2021).

B1: wild type human KMO (Hs-KMO), NanoBRET constructs [human] / itself (parent complex)
chain: MDSSVIQRKKVAVIGGGLVGSLQACFLAKRNFQIDVYEAREDTRVATFTRGRSINLALSHRGRQALKAVGLEDQIVSQGIPMRARMIHSLSGKKSAIPYGTKSQYILSVSRENLNKDLLTAAEKYPNVKMHFNHRLLKCNPEEGMITVLGSDKVPKDVTCDLIVGCDGAYSTVRSHLMKKPRFDYSQQYIPHGYMELTIPPKNGDYAMEPNYLHIWPRNTFMMIALPNMNKSFTCTLFMPFEEFEKLLTSNDVVDFFQKYFPDAIPLIGEKLLVQDFFLLPAQPMISVKCSSFHFKSHCVLLGDAAHAIVPFFGQGMNAGFEDCLVFDELMDKFSNDLSLCLPVFSRLRIPDDHAISDLSMYNYIEMRAHVNSSWFIFQKNMERFLHAIMPSTFIPLYTMVTFSRIRYHEAVQRWHWQKKVINKGLFFLGSLIAISSTYLLIHYMSPRSFLRLRRPWNWIAHFRNTTCFPAKAVDSLEQISNLISR

Variants of: B1
Test: NanoBRET; HEK293T cells; + ligand (TMR ligand); n = 6; read off a plot

| response [mBU] | Variant |
| --- | --- |
| ~78 | chain 1 D184A, chain 1 Y185P, chain 1 Q187A |
